Assay [1] deals with HeLa cohesin (unlabelled cohesin-STAG1) (human (endogenous in HeLa)) (UniProt Q14683). Briefly: single-molecule fluorescence imaging of DNA loop extrusion.
For assay [2] the target is unchanged. The assay is described as above. This is another data set of the same source.

UniProt Q14683, sequence (Q14683 whole entry, chain 1 of 4): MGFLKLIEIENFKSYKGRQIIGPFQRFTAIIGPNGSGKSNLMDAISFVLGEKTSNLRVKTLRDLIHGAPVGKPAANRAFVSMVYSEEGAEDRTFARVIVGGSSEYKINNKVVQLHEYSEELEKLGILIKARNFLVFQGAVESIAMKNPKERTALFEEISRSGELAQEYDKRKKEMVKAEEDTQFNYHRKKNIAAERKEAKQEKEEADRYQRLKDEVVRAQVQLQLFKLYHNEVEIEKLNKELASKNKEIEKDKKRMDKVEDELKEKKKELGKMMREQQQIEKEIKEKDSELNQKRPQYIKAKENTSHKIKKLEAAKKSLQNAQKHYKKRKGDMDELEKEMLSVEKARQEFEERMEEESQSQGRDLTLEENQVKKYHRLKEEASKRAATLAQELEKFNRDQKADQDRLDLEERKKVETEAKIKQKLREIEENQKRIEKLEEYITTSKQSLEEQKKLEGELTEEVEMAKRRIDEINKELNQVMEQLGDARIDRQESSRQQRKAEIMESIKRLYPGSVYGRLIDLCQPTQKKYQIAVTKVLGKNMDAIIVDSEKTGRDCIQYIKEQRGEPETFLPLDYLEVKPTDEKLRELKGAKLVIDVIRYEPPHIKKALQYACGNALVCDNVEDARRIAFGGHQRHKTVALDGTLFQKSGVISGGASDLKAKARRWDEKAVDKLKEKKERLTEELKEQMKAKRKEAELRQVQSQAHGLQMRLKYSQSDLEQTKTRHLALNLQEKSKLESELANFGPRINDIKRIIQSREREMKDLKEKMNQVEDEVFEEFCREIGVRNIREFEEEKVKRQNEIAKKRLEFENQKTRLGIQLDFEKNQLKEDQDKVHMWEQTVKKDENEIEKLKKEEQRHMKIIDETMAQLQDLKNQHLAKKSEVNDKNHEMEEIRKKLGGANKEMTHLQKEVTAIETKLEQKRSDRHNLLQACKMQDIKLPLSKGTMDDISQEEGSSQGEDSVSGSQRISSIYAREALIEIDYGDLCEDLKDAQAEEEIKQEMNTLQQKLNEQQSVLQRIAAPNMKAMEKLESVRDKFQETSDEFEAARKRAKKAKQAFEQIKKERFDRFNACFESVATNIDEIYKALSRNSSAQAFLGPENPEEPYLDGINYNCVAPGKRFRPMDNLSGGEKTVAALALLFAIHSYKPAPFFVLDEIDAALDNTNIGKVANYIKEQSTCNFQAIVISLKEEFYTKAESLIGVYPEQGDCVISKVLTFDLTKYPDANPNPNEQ
UniProt Q14683, sequence (Q9UQE7 whole entry, chain 2 of 4, further chain): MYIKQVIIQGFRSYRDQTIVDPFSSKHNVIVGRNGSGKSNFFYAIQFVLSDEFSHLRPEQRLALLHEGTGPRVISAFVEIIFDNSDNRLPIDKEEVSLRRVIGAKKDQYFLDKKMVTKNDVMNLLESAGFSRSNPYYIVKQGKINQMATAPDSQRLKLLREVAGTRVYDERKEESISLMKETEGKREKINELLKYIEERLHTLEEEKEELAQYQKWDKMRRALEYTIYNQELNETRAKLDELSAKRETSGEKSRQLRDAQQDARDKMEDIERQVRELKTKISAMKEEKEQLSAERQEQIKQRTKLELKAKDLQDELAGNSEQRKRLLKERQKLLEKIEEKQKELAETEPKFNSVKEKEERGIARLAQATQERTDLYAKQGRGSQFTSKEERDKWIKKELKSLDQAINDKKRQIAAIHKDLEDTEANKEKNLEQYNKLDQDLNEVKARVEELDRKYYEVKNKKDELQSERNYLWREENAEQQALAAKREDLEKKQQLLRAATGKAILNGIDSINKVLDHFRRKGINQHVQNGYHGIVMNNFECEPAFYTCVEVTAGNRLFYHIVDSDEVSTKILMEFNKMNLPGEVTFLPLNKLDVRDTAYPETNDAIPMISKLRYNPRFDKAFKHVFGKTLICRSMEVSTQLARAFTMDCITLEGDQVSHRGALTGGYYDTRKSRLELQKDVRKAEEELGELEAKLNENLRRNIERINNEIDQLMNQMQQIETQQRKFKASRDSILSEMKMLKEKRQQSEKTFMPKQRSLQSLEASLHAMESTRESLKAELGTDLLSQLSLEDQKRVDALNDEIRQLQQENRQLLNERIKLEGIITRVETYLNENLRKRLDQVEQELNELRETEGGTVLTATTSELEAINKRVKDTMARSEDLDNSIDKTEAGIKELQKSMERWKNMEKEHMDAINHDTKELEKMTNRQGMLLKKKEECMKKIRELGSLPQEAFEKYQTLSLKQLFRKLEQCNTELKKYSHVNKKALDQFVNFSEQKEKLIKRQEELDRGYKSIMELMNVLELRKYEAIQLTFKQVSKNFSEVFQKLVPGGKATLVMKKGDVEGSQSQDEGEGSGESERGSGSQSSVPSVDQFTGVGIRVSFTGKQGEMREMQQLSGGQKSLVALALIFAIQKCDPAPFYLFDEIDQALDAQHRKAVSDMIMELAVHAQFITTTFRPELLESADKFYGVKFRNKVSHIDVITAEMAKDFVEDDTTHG
UniProt Q14683, sequence (O60216 whole entry, chain 3 of 4, further chain): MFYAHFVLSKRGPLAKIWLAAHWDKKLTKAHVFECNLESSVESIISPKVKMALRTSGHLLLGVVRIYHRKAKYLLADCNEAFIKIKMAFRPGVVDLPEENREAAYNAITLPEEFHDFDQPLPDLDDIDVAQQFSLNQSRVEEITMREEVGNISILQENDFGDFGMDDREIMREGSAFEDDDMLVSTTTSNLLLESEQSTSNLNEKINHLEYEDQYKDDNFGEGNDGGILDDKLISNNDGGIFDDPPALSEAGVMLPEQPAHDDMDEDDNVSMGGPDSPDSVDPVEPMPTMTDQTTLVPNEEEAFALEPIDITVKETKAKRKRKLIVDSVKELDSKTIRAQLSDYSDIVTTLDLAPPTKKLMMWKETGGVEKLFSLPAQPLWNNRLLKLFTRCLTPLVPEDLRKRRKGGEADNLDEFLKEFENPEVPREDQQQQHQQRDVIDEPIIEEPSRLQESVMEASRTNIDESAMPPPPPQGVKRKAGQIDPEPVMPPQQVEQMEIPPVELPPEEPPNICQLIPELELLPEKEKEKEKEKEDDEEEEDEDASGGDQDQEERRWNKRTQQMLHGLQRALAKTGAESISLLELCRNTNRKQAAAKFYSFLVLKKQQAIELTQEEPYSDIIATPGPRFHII
UniProt Q14683, sequence (Q8WVM7 whole entry, chain 4 of 4, further chain): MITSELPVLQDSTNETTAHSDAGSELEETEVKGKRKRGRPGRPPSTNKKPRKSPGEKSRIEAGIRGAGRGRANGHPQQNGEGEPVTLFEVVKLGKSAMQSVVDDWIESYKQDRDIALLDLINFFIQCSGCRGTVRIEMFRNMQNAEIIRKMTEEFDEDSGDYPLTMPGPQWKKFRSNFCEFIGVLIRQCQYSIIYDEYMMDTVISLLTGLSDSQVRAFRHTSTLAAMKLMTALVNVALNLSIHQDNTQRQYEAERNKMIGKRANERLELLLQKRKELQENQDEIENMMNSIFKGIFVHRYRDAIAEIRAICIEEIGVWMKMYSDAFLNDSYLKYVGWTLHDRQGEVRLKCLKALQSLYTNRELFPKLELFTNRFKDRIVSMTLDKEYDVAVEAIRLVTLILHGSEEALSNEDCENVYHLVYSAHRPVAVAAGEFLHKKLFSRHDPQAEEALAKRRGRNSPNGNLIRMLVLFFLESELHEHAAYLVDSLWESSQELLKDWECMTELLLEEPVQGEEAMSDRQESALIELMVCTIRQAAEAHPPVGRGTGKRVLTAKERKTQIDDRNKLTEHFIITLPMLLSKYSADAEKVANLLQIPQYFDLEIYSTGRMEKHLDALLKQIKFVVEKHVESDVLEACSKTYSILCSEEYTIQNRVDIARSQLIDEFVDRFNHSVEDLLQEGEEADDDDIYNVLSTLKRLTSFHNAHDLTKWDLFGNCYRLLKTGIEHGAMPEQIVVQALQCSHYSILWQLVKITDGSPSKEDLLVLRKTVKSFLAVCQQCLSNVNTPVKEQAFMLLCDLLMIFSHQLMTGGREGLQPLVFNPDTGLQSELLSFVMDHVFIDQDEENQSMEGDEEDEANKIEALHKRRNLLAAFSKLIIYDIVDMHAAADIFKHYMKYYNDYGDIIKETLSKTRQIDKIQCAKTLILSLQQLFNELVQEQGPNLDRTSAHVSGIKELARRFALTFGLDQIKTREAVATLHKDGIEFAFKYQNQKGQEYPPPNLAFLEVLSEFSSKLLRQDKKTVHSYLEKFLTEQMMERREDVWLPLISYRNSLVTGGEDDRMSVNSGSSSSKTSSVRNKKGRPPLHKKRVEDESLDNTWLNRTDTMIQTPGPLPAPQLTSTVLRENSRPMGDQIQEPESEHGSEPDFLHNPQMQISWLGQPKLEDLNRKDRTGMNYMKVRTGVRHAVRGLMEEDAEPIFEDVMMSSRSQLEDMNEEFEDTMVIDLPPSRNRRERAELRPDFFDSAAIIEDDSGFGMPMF

In assay [1], “NIPBL-ΔN labelled with ATTO550 (BB241) (domain or fragment)” came in with a median residence time of NIPBL on loops, no PDS5B added of 50 s and a residence time of NIPBL on loops on which NIPBL was exchanged with PDS5B of 38 s.

B1: PDS5B labelled with JF646 (natural protein)
chain: MAHSKTRTNDGKITYPPGVKEISDKISKEEMVRRLKMVVKTFMDMDQDSEEEKELYLNLALHLASDFFLKHPDKDVRLLVACCLADIFRIYAPEAPYTSPDKLKDIFMFITRQLKGLEDTKSPQFNRYFYLLENIAWVKSYNICFELEDSNEIFTQLYRTLFSVINNGHNQKVHMHMVDLMSSIICEGDTVSQELLDTVLVNLVPAHKNLNKQAYDLAKALLKRTAQAIEPYITNFFNQVLMLGKTSISDLSEHVFDLILELYNIDSHLLLSVLPQLEFKLKSNDNEERLQVVKLLAKMFGAKDSELASQNKPLWQCYLGRFNDIHVPIRLECVKFASHCLMNHPDLAKDLTEYLKVRSHDPEEAIRHDVIVSIVTAAKKDILLVNDHLLNFVRERTLDKRWRVRKEAMMGLAQIYKKYALQSAAGKDAAKQIAWIKDKLLHIYYQNSIDDRLLVERIFAQYMVPHNLETTERMKCLYYLYATLDLNAVKALNEMWKCQNLLRHQVKDLLDLIKQPKTDASVKAIFSKVMVITRNLPDPGKAQDFMKKFTQVLEDDEKIRKQLEVLVSPTCSCKQAEGCVREITKKLGNPKQPTNPFLEMIKFLLERIAPVHIDTESISALIKQVNKSIDGTADDEDEGVPTDQAIRAGLELLKVLSFTHPISFHSAETFESLLACLKMDDEKVAEAALQIFKNTGSKIEEDFPHIRSALLPVLHHKSKKGPPRQAKYAIHCIHAIFSSKETQFAQIFEPLHKSLDPSNLEHLITPLVTIGHIALLAPDQFAAPLKSLVATFIVKDLLMNDRLPGKKTTKLWVPDEEVSPETMVKIQAIKMMVRWLLGMKNNHSKSGTSTLRLLTTILHSDGDLTEQGKISKPDMSRLRLAAGSAIVKLAQEPCYHEIITLEQYQLCALAINDECYQVRQVFAQKLHKGLSRLRLPLEYMAICALCAKDPVKERRAHARQCLVKNINVRREYLKQHAAVSEKLLSLLPEYVVPYTIHLLAHDPDYVKVQDIEQLKDVKECLWFVLEILMAKNENNSHAFIRKMVENIKQTKDAQGPDDAKMNEKLYTVCDVAMNIIMSKSTTYSLESPKDPVLPARFFTQPDKNFSNTKNYLPPEMKSFFTPGKPKTTNVLGAVNKPLSSAGKQSQTKSSRMETVSNASSSSNPSSPGRIKGRLDSSEMDHSENEDYTMSSPLPGKKSDKRDDSDLVRSELEKPRGRKKTPVTEQEEKLGMDDLTKLVQEQKPKGSQRSRKRGHTASESDEQQWPEEKRLKEDILENEDEQNSPPKKGKRGRPPKPLGGGTPKEEPTMKTSKKGSKKKSGPPAPEEEEEEERQSGNTEQKSKSKQHRVSRRAQQRAESPESSAIESTQSTPQKGRGRPSKTPSPSQPKKNVRVGRSKQAATKENDSSEEVDVFQGSSPVDDIPQEETEEEEVSTVNVRRRSAKRERR
modifications: JF646-HaloTag ligand on the HaloTag
B1: the median time for which NIPBL and PDS5B were both on the loop during exchange in assay [2] came out at 3 s.

(Values after publication doi:10.1101/2025.08.30.673243.)
